# Experimental data from patent publication US5719021A, “Protein activation” (University of Medicine and Dentistry of New Jersey, dated 1998).
# Where two headings read alike, the source gives them in different places.
# T1: pro-subtilisin E (Bacillus subtilis, UniProt P04189)
# T1 construct: Pro-subtilisin consists of 352 amino acid residues; 77 residues for the amino-terminal pro-peptide plus 275 residues for the mature subtilisin; E. coli OmpA signal peptide (N); made in house; host or cells: E. coli (inclusion bodies)
# T1 sequence (P04189 30-381 limits assumed): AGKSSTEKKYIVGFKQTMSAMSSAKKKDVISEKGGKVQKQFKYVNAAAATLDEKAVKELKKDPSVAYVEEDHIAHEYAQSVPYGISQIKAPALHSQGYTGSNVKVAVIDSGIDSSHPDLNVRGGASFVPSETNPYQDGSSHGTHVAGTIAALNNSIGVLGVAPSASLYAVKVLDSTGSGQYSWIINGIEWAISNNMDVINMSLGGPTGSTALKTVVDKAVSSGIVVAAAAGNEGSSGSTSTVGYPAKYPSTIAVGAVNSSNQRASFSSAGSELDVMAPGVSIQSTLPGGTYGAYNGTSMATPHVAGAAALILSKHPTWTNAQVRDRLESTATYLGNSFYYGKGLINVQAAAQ
# T2: subtilisin E (Bacillus subtilis, UniProt P04189)
# T2 construct: 77 residues for the amino-terminal pro-peptide plus 275 residues for the mature subtilisin; made in house
# T2 sequence (P04189 107-381): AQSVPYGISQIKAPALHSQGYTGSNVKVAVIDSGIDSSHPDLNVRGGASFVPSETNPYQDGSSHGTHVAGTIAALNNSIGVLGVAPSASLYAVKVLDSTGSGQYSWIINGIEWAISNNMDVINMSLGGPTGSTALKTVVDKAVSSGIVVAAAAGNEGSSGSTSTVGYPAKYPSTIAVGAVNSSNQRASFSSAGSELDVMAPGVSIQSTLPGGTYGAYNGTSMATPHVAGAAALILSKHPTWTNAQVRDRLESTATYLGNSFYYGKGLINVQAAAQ
# T3: denatured subtilisin E (Bacillus subtilis, UniProt P04189)
# T3 construct: 77 residues for the amino-terminal pro-peptide plus 275 residues for the mature subtilisin; made in house
# T3 sequence (P04189 107-381): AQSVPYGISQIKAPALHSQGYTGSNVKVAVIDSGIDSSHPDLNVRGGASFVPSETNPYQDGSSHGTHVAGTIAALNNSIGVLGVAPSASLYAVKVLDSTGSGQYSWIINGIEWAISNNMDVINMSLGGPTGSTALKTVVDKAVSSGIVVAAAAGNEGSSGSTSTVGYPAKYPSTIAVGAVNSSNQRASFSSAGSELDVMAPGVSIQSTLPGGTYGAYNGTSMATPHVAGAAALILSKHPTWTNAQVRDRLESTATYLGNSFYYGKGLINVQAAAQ
# T4: denatured subtilisin BPN' (Bacillus amyloliquefaciens, UniProt P00782)
# T4 sequence (P00782 108-382): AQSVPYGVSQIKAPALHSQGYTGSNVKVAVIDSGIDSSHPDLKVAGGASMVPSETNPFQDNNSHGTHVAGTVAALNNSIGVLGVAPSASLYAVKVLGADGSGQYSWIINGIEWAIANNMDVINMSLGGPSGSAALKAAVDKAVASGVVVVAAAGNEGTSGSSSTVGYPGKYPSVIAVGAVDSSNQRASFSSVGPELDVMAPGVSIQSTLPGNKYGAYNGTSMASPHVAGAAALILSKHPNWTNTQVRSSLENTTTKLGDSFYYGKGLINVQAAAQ
# T5: subtilisin E (Bacillus subtilis)
# T5 chain: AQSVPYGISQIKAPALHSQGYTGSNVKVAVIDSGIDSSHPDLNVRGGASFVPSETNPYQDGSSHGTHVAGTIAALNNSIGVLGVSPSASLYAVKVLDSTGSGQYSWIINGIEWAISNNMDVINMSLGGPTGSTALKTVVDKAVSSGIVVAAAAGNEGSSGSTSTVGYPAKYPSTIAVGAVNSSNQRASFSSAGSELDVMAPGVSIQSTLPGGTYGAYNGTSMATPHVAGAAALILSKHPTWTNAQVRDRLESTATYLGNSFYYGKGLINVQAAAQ
# T6: subtilisin BPN' (Bacillus amyloliquefaciens)
# T6 chain: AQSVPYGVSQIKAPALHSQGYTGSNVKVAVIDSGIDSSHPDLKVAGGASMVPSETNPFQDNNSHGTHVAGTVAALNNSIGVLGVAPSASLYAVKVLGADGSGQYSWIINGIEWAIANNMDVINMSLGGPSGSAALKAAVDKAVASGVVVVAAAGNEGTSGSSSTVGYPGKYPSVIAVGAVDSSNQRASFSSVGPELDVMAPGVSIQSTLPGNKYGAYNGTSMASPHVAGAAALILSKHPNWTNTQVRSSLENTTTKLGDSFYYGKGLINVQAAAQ
# Assays:
# pro-subtilisin E = target: T1, pro-subtilisin E; test: In vitro processing of denatured pro-subtilisin to active subtilisin by dialysis; assay type: biochemical; conditions: for Processing/conversion to active mature subtilisin: in vitro dialysis, e.g. 0.2M sodium phosphate pH 6.2
# Source text: Pro-subtilisin thus produced was solubilized in 6M guanidine-HCl and purified to homogeneity in the presence of 5M urea.
# Its N-terminal amino acid sequence and the mobility in SDS-polyacrylamide gel electrophoresis were identical to those of authentic subtilisin.
# It is interesting to note that the processing reaction to active subtilisin was independent of the pro-subtilisin concentration. Thus, the conversion is a first-order reaction.
# The pro-subtilisin was in solution in a denaturant like guanidine-HCl or urea to prevent autoprocesssing to active subtitisin. For best results, the work was carried out with urea.
# The method for activating the polypeptide comprises contacting it with the selected activating peptide. For pro-subtilisin E the efficiency of the conversion to active subtilisin E is independent of the pro-subtilisin concentration, indicating a first order reaction. The reaction is carried out in an appropriate buffer medium. […] At higher concentration, the ammonium sulfate appears to inhibit the proper folding of the polypeptide. When sulfate is used as the anion, there may be used as cations Na^+, K^+, and Li^+ or NH4^+ and equivalent others. Most efficient processing was obtained with 0.5M (NH4)2 SO4 in a 10 mM Tri-HCl buffer (at pH7.0), containing 1 mM CaCl2. Under these conditions, 1 mg of pro-subtilisin produced 89 U of subtilisin activity.
# subtilisin E = target: T2, subtilisin E; test: Competitive inhibition of subtilisin E by synthetic pro-peptides; assay type: biochemical; conditions: competitive inhibitor
# Source text: 5. The synthetic pro-peptide is able to specifically bind to the active center of subtilisin.
# denatured subtilisin E = target: T3, denatured subtilisin E; test: Renaturation (intermolecular refolding) of denatured subtilisin E with exogenously added pro-peptide; assay type: biochemical
# Source text: The studies established that denatured subtilisin (without the pro-peptide)cannot be renatured to active subtilisin.
# The pro-peptide of 77 residues for subtilisin E (see FIG. 1) was synthesized.
# (§1) Other synthetic activating sequences were reacted with a selected polypeptide, in this case subtilisin, as described by Ohta et al. in Molecular Microbiology, 5(6), 1507-1510 (1991), which is incorporated herein by reference (and cofiled herewith). Active subtilisin was obtained.
# (§2) The concentration of the activating peptide is preferably in a molar ratio of one of the activating protein to the polypeptide to be activated. At higher and lower concentration than 1 to 1, the renaturation yield was not as high; when the ratio exceeded 1, inhibition was observed. The activating peptide appears to act an inhibitor of the activated polypeptide.
# (§3) Different concentrations of the different synthetic peptides were used a shown in the above-cited reference. The mixture of synthetic and polypeptide was dialyzed against 10 mM sodium phosphate, pH 7.0, that also contained 0.5M (NH4)2 SO4, 2 mM CaCl2 and 10 μm of 3,5-bis-trifluoromethylbenzeneboronic acid (BTFBA), a serine protease inhibitor.
# [1] = target: T4, denatured subtilisin BPN'; test: Renaturation of denatured subtilisin BPN' with exogenously added pro-peptide; assay type: biochemical; conditions: for Efficiency of renaturation of denatured subtilisin BPN' relative to the pro-77-mer: relative to pro-77-mer
# Source text: Similarly, pro-peptides corresponding to -1 to -77, -1 to -68 and -1 to -63 for subtilisin BPN' were synthesized (See FIG. 1).
# as §1, §2, §3
# subtilisin Carlsberg = target: T7, subtilisin Carlsberg (Bacillus licheniformis, UniProt P00780); test: Renaturation of acid-denatured subtilisin Carlsberg with exogenously added pro-peptide; assay type: biochemical
# T7 construct: denatured subtilisin (without the pro-peptide)cannot be renatured to active subtilisin
# Source text: This pro-peptide variant was effective even though there are quite a number of amino acid substitutions in both subtilisins BPN' and Carlsberg when compared with subtilisin E (See FIG. 1).
# [2] = target: T5, subtilisin E (Bacillus subtilis); test: competitive inhibition of enzyme activity
# subtilisin BPN' = target: T6, subtilisin BPN'; test: competitive inhibition of enzyme activity
molecule,measurement,setting,value
"O=S(=O)(F)Cc1ccccc1 [phenylmethanesulfonyl fluoride, reference compound]",Inhibition of the processing of pro-subtilisin to active subtilisin,pro-subtilisin E,unable to inhibit
synthetic pro-peptide of -1 to -77 for subtilisin E: synthesized pro-peptide of 77 residues (-1 to -77) for subtilisin E,Ki,subtilisin E; listed as synthetic pro-peptide,540 nM
same,Ki,subtilisin E; read-out: Ki as competitive inhibitor of subtilisin E,≤ 540 nM
same,Refolding/renaturation of denatured subtilisin E to active enzyme,denatured subtilisin E,able to intermolecularly complement the refolding
"pro-subtilisin E: pro-subtilisin produced in E. coli as inclusion bodies, solubilized in 6M guanidine-HCl and purified in 5M urea (protein) AGKSSTEKKYIVGFKQTMSAMSSAKKKDVISEKGGKVQKQFKYVNAAAATLDEKAVKELKKDPSVAYVEEDHIAHEYAQSVPYGISQIKAPALHSQGYTGSNVKVAVIDSGIDSSHPDLNVRGGASFVPSETNPYQDGSSHGTHVAGTIAALNNSIGVLGVSPSASLYAVKVLDSTGSGQYSWIINGIEWAISNNMDVINMSLGGPTGSTALKTVVDKAVSSGIVVAAAAGNEGSSGSTSTVGYPAKYPSTIAVGAVNSSNQRASFSSAGSELDVMAPGVSIQSTLPGGTYGAYNGTSMATPHVAGAAALILSKHPTWTNAQVRDRLESTATYLGNSFYYGKGLINVQAAAQ",Subtilisin activity produced from 1 mg of pro-subtilisin,"pro-subtilisin E; 0.5M (NH4)2SO4 in 10 mM Tris-HCl pH 7.0, 1 mM CaCl2",89 U
same,Conversion efficiency of pro-subtilisin to active subtilisin,pro-subtilisin E; calculated from 89 U versus 470 U,approximately 20%
same,Theoretical maximum activity for 1 mg of pro-subtilisin E,pro-subtilisin E; estimated,470 U
same,Processing/conversion to active mature subtilisin,pro-subtilisin E,converted to active subtilisin
"pro-subtilisin E with the Asp32 to Asn active site mutation: pro-subtilisin E with active site mutation Asp32 to Asn, used as exogenous pro-peptide source (protein, UniProt P04189 30-381, looked up, variant D32N, pro-form) pro-form: AGKSSTEKKYIVGFKQTMSAMSSAKKKDVISEKGGKVQKQFKYVNAAAATLDEKAVKELKKDPSVAYVEEDHIAHEYAQSVPYGISQIKAPALHSQGYTGSNVKVAVINSGIDSSHPDLNVRGGASFVPSETNPYQDGSSHGTHVAGTIAALNNSIGVLGVAPSASLYAVKVLDSTGSGQYSWIINGIEWAISNNMDVINMSLGGPTGSTALKTVVDKAVSSGIVVAAAAGNEGSSGSTSTVGYPAKYPSTIAVGAVNSSNQRASFSSAGSELDVMAPGVSIQSTLPGGTYGAYNGTSMATPHVAGAAALILSKHPTWTNAQVRDRLESTATYLGNSFYYGKGLINVQAAAQ",Renaturation of acid-denatured subtilisin BPN',[1]; acid-denatured,able to renature
same,Refolding/renaturation of denatured subtilisin E to active enzyme,denatured subtilisin E,active subtilisin is formed
same,Processing/conversion to active mature subtilisin,pro-subtilisin E; listed as pro-subtilisin with an active site mutation (Asp32 to Asn),cannot be autoprocessed
same,Processing/conversion to active mature subtilisin,pro-subtilisin E; listed as pro-subtilisin with an active-site mutation (aspartic acid at position 32 to asp),unable to be processed
same,Renaturation of acid-denatured subtilisin Carlsberg,subtilisin Carlsberg,able to renature
"processed subtilisin: active subtilisin obtained by in vitro processing of pro-subtilisin E (protein, UniProt P04189 107-381, looked up) Subtilisin E: AQSVPYGISQIKAPALHSQGYTGSNVKVAVIDSGIDSSHPDLNVRGGASFVPSETNPYQDGSSHGTHVAGTIAALNNSIGVLGVAPSASLYAVKVLDSTGSGQYSWIINGIEWAISNNMDVINMSLGGPTGSTALKTVVDKAVSSGIVVAAAAGNEGSSGSTSTVGYPAKYPSTIAVGAVNSSNQRASFSSAGSELDVMAPGVSIQSTLPGGTYGAYNGTSMATPHVAGAAALILSKHPTWTNAQVRDRLESTATYLGNSFYYGKGLINVQAAAQ",Specific activity of processed subtilisin relative to authentic subtilisin E,pro-subtilisin E,approximately half
synthetic pro-peptide of -1 to -77 for subtilisin E (modifications not checked) peptide: AGKSSTEKKYIVGFKQTMSAMSSAKKKDVISEKGGKVQKQFKYVNAAAATLDEKAVKELKKDPSVAYVEEDHIAHEY,Ki,[2],< 540 nM
pro-77-mer (from -1 to -77) for subtilisin BPN' (peptide) peptide: AGKSNGEKKYIVGFKQTMSTMSAAKKKDVISEKGGKVQKQFKYVDAASATLNEKAVKELKKDPSVAYVEEDHVAHAY,Effectiveness for the renaturation of denatured subtilisin BPN',[1],most effective
same,Ki,subtilisin BPN',380 nM
pro-68-mer (from -1 to -68) for subtilisin BPN' (peptide) peptide: YIVGFKQTMSTMSAAKKKDVISEKGGKVQKQFKYVDAASATLNEKAVKELKKDPSVAYVEEDHVAHAY,Efficiency of renaturation of denatured subtilisin BPN' relative to the pro-77-mer,[1],30-40%
same,Ki,subtilisin BPN',760 nM
pro-63-mer (from -1 to -63) for subtilisin BPN' (peptide) peptide: KQTMSTMSAAKKKDVISEKGGKVQKQFKYVDAASATLNEKAVKELKKDPSVAYVEEDHVAHAY,Efficiency of renaturation of denatured subtilisin BPN' relative to the pro-77-mer,[1],30-40%
same,Ki,subtilisin BPN',790 nM
Streptomyces subtilisin inhibitor: inhibitor tested on processing of pro-subtilisin to active subtilisin (protein) DAPSALYAPSALVLTVGKGVSATTAAPERAVTLTCAPGPSGTHPAAGSACADLAAVGGDLNALTRGEDVMCPMVYDPVLLTVDGVWQGKRVSYERVFSNECEMNAHGSSVFAF,Inhibition of the processing of pro-subtilisin to active subtilisin,pro-subtilisin E,unable to inhibit
